Columns and labels:
[1] = molecular target: T1, CTNI quality control recombinant antigen (human, UniProt P19429 1-210, limits assumed); experiment: BLI, antibody on AMC sensor, cTnI in solution
T1 construct: Recombinant antigen produced by the applicant; also called CTNI quality control recombinant protein (antigen produced by the company); cardiac troponin I
Description: With an AMC sensor, the purified antibody was diluted to 10 μg/ml with PBST, and CTNI quality control recombinant protein (antigen produced by the company) was gradient diluted with PBST to 769.2 nmol/ml, 384.6 nmol/ml, 192.3 nmol/ml, 96.2 nmol/ml, 48.1 nmol/ml, 24 nmol/ml, 12 nmol/ml, and 0 nmol/ml.

[2] = molecular target: T1, CTNI quality control recombinant antigen; experiment: indirect ELISA, cTnI coated 1 ug/ml, antibody 0.152 ng/ml
Description: (§1) CTNI quality control recombinant antigen was diluted to 1 μg/ml with a coating solution and coated a microplate, 100 μL per well, overnight at 4° C.; on the next day, the microplate was washed with a washing solution twice and patted dry; a blocking solution (20% of BSA+80% of PBS) was added, 120 μL per well, 37° C., 1 h, patted dry; the diluted cTnI monoclonal antibodies were added, 100 μL/well, 37° C., 30 min; the microplate was washed with a washing solution 5 times, patted dry; goat anti-mouse IgG-HRP, 100 μL per well, 37° C., 30 min; the microplate was washed with a washing solution 5 times, patted dry; a color-developing solution A (50 μL/well) was added, a color-developing solution B (50 μL/well) was added, 10 min; a stop solution was added, 50 μL/well; OD values were read on microplate reader at 450 nm (reference, 630 nm).

[3] = molecular target: T1, CTNI quality control recombinant antigen; experiment: indirect ELISA, cTnI coated 1 ug/ml, antibody 0 ng/ml (blank)
Description: as §1

[4] = molecular target: T1, CTNI quality control recombinant antigen; experiment: indirect ELISA, cTnI coated 1 ug/ml, antibody 0.457 ng/ml
Description: as §1

[5] = molecular target: T1, CTNI quality control recombinant antigen; experiment: indirect ELISA, cTnI coated 1 ug/ml, antibody 1.372 ng/ml
Description: as §1

[6] = molecular target: T1, CTNI quality control recombinant antigen; experiment: indirect ELISA, cTnI coated 1 ug/ml, antibody 12.346 ng/ml
Description: as §1

[7] = molecular target: T1, CTNI quality control recombinant antigen; experiment: indirect ELISA, cTnI coated 1 ug/ml, antibody 0.051 ng/ml
Description: as §1

[8] = molecular target: T1, CTNI quality control recombinant antigen; experiment: indirect ELISA, cTnI coated 1 ug/ml, antibody 4.115 ng/ml
Description: as §1

T1 sequence (P19429 whole entry): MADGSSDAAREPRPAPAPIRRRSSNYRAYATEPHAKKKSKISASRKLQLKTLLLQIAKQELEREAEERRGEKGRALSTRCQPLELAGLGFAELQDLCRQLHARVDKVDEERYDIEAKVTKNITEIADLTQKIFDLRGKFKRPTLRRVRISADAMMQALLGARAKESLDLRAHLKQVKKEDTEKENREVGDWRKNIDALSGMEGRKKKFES

Binder | Kd [1] | koff [1] | kon [1] | OD450 (reference 630 nm) [2] | OD450 (reference 630 nm) [3] | OD450 (reference 630 nm) [4] | OD450 (reference 630 nm) [5] | OD450 (reference 630 nm) [6] | OD450 (reference 630 nm) [7] | OD450 (reference 630 nm) [8]
Mutation 1-45 (antibody, assembled FR/CDR/constant) heavy: EVQMVESGGGLLKPGGSLKLSCAASGFTFSNYAMSWVRQTPEKRLEWVATISSGGSYSFYPDSVKGRFTISRDNAKNTLYLQMLSLRSEDTAMYYCARRDNYFGSTFMDYWGQGSSVTVSSAKTTPPSVYPLAPGSAAQTNSMVTLGCLVKGYFPEPVTVTWNSGSLSSGVHTFPAVLQSDLYTLSSSVTVPSSTWPSQTVTCNVAHPASSTKVDKKIVPRDCGCKPCICTVPEVSSVFIFPPKPKDVLTITLTPKVTCVVVDISKDDPEVQFSWFVDDVEVHTAQTKPREEQFNSTFRSVSELPIMHQDWLNGKEFKCRVNSAAFPAPIEKTISKTKGRPKAPQVYTIPPPKEQMAKDKVSLTCMITNFFPEDITVEWQWNGQPAENYKNTQPIMDTDGSYFVYSKLNVQKSNWEAGNTFTCSVLHEGLHNHHTEKSLSHSPG light: DIQMTQTSSSLSASLGDRVTISCRASQEITNYLNWYQQKPDGTIKLLIYYTSRIHSGVSSRFSGSGSGTDYSLTISNLEQEDIATYFCQQGNTIPLTFDTGTKLELKRADAAPTVSIFPPSSEQLTSGGASVVCFLNNFYPKDINVKWKIDGSERQNGVLNSWTDQDSKDSTYSMSSTLTLTKDEYERHNSYTCEATHKTSTSPIVKSFNRNEC | 9.02 nM | 0.00019 s⁻¹ | 21100 M⁻¹ s⁻¹ | – | – | – | – | – | – | –
Mutation 2 (antibody, assembled FR/CDR/constant) heavy: EVQMVESGGGLLKPGGSLKLSCAASGFTYSNYAMSWVRQTPEKRLEWVATISTGGSYSYYPDSVKGRFTISRDNAKNTLYLQMLSLRSEDTAMYYCARRDNYYGSTFMDYWGQGSSVTVSSAKTTPPSVYPLAPGSAAQTNSMVTLGCLVKGYFPEPVTVTWNSGSLSSGVHTFPAVLQSDLYTLSSSVTVPSSTWPSQTVTCNVAHPASSTKVDKKIVPRDCGCKPCICTVPEVSSVFIFPPKPKDVLTITLTPKVTCVVVDISKDDPEVQFSWFVDDVEVHTAQTKPREEQFNSTFRSVSELPIMHQDWLNGKEFKCRVNSAAFPAPIEKTISKTKGRPKAPQVYTIPPPKEQMAKDKVSLTCMITNFFPEDITVEWQWNGQPAENYKNTQPIMDTDGSYFVYSKLNVQKSNWEAGNTFTCSVLHEGLHNHHTEKSLSHSPG light: DIQMTQTSSSLSASLGDRVTISCRASQDITQYLNWYQQKPDGTIKLLIYYTSRIHSGVSSRFSGSGSGTDYSLTISNLEQEDIATYFCQQGNTIPLTFDTGTKLELKRADAAPTVSIFPPSSEQLTSGGASVVCFLNNFYPKDINVKWKIDGSERQNGVLNSWTDQDSKDSTYSMSSTLTLTKDEYERHNSYTCEATHKTSTSPIVKSFNRNEC | – | – | – | 0.072 OD | 0 OD | 0.248 OD | 0.728 OD | 1.95 OD | 0.058 OD | 1.44 OD
WT 1-1 (antibody, V domains shown) VH: QVQLQQSGTELAKPGASVKFSCKASDYTFSTYWMYWIKQRPGQGLEWIGYINPSTGHTEYNQKFKDKATLTADKSSSTAYMQLNSLTSEDSAVYYCARRYYGPFAMDYWGQGTSVTVSS VL: EIFLTQSPAIMSASPGEKVTMTCSASSSVSYAHWYQQKSGTSPKRWIYDSSKIASGIPVRFSGSGSGTSYSLTISSMEAEDAATYYCQNWSTNPYTFGGGTKLEIKR | 33.3 nM | 0.000128 s⁻¹ | 3840 M⁻¹ s⁻¹ | – | – | – | – | – | – | –
WT 1-5 (antibody, V domains shown) VH: QVQLQQSGTELAKPGASVKFSCKASDYTFSSYWMYWIKQRPGQGLEWIGYLNPSTGHTEYNQKFKDKATLTADKSSSTAYMQLNSLTSEDSAVYYCARKYWGPFAMDYWGQGTSVTVSS VL: EIFLTQSPAIMSASPGEKVTMTCSASSSVSYAHWYQQKSGTSPKRWIYDSSKIASGIPVRFSGSGSGTSYSLTISSMEAEDAATYYCQNWSTNPYTFGGGTKLEIKR | 8.35 nM | 0.000743 s⁻¹ | 89000 M⁻¹ s⁻¹ | – | – | – | – | – | – | –

The remaining lines, values ahead:

Kd [1] | koff [1] | kon [1] | OD450 (reference 630 nm) [2] | OD450 (reference 630 nm) [3] | OD450 (reference 630 nm) [4] | OD450 (reference 630 nm) [5] | OD450 (reference 630 nm) [6] | OD450 (reference 630 nm) [7] | OD450 (reference 630 nm) [8] | Binder
3.53 nM | 0.000171 s⁻¹ | 48500 M⁻¹ s⁻¹ | – | – | – | – | – | – | – | Mutation 1-44 (antibody, assembled FR/CDR/constant) heavy: EVQMVESGGGLLKPGGSLKLSCAASGFTYSNYAMSWVRQTPEKRLEWVATISSGGSYSYYPDSVKGRFTISRDNAKNTLYLQMLSLRSEDTAMYYCARRDNYPGSSFMDYWGQGSSVTVSSAKTTPPSVYPLAPGSAAQTNSMVTLGCLVKGYFPEPVTVTWNSGSLSSGVHTFPAVLQSDLYTLSSSVTVPSSTWPSQTVTCNVAHPASSTKVDKKIVPRDCGCKPCICTVPEVSSVFIFPPKPKDVLTITLTPKVTCVVVDISKDDPEVQFSWFVDDVEVHTAQTKPREEQFNSTFRSVSELPIMHQDWLNGKEFKCRVNSAAFPAPIEKTISKTKGRPKAPQVYTIPPPKEQMAKDKVSLTCMITNFFPEDITVEWQWNGQPAENYKNTQPIMDTDGSYFVYSKLNVQKSNWEAGNTFTCSVLHEGLHNHHTEKSLSHSPG light: DIQMTQTSSSLSASLGDRVTISCRASQDITNYLNWYQQKPDGTIKLLIYYTSRLHSGVSSRFSGSGSGTDYSLTISNLEQEDIATYFCQQGHTLPLTFDTGTKLELKRADAAPTVSIFPPSSEQLTSGGASVVCFLNNFYPKDINVKWKIDGSERQNGVLNSWTDQDSKDSTYSMSSTLTLTKDEYERHNSYTCEATHKTSTSPIVKSFNRNEC
4.93 nM | 0.000274 s⁻¹ | 55600 M⁻¹ s⁻¹ | – | – | – | – | – | – | – | Mutation 1-46 (antibody, assembled FR/CDR/constant) heavy: EVQMVESGGGLLKPGGSLKLSCAASGFTYSNYAMSWVRQTPEKRLEWVATISSGGSYSFYPDSVKGRFTISRDNAKNTLYLQMLSLRSEDTAMYYCARRDNYYGSTFMDYWGQGSSVTVSSAKTTPPSVYPLAPGSAAQTNSMVTLGCLVKGYFPEPVTVTWNSGSLSSGVHTFPAVLQSDLYTLSSSVTVPSSTWPSQTVTCNVAHPASSTKVDKKIVPRDCGCKPCICTVPEVSSVFIFPPKPKDVLTITLTPKVTCVVVDISKDDPEVQFSWFVDDVEVHTAQTKPREEQFNSTFRSVSELPIMHQDWLNGKEFKCRVNSAAFPAPIEKTISKTKGRPKAPQVYTIPPPKEQMAKDKVSLTCMITNFFPEDITVEWQWNGQPAENYKNTQPIMDTDGSYFVYSKLNVQKSNWEAGNTFTCSVLHEGLHNHHTEKSLSHSPG light: DIQMTQTSSSLSASLGDRVTISCRASQEITNYLNWYQQKPDGTIKLLIYYTSRLHSGVSSRFSGSGSGTDYSLTISNLEQEDIATYFCQQGHTLPLTFDTGTKLELKRADAAPTVSIFPPSSEQLTSGGASVVCFLNNFYPKDINVKWKIDGSERQNGVLNSWTDQDSKDSTYSMSSTLTLTKDEYERHNSYTCEATHKTSTSPIVKSFNRNEC
2.87 nM | 9.47e-05 s⁻¹ | 33000 M⁻¹ s⁻¹ | – | – | – | – | – | – | – | Mutation 1-47 (antibody, assembled FR/CDR/constant) heavy: EVQMVESGGGLLKPGGSLKLSCAASGFTFSNYAMSWVRQTPEKRLEWVATISSGGSYSYYPDSVKGRFTISRDNAKNTLYLQMLSLRSEDTAMYYCARRDNYPGSSFMDYWGQGSSVTVSSAKTTPPSVYPLAPGSAAQTNSMVTLGCLVKGYFPEPVTVTWNSGSLSSGVHTFPAVLQSDLYTLSSSVTVPSSTWPSQTVTCNVAHPASSTKVDKKIVPRDCGCKPCICTVPEVSSVFIFPPKPKDVLTITLTPKVTCVVVDISKDDPEVQFSWFVDDVEVHTAQTKPREEQFNSTFRSVSELPIMHQDWLNGKEFKCRVNSAAFPAPIEKTISKTKGRPKAPQVYTIPPPKEQMAKDKVSLTCMITNFFPEDITVEWQWNGQPAENYKNTQPIMDTDGSYFVYSKLNVQKSNWEAGNTFTCSVLHEGLHNHHTEKSLSHSPG light: DIQMTQTSSSLSASLGDRVTISCRASQDITNYLNWYQQKPDGTIKLLIYYTSRIHSGVSSRFSGSGSGTDYSLTISNLEQEDIATYFCQQGNTLPLTFDTGTKLELKRADAAPTVSIFPPSSEQLTSGGASVVCFLNNFYPKDINVKWKIDGSERQNGVLNSWTDQDSKDSTYSMSSTLTLTKDEYERHNSYTCEATHKTSTSPIVKSFNRNEC
7.04 nM | 0.000583 s⁻¹ | 82800 M⁻¹ s⁻¹ | – | – | – | – | – | – | – | Mutation 1-48 (antibody, assembled FR/CDR/constant) heavy: EVQMVESGGGLLKPGGSLKLSCAASGFTYSNYAMSWVRQTPEKRLEWVATISSGGSYSYYPDSVKGRFTISRDNAKNTLYLQMLSLRSEDTAMYYCARRDNYPGSTFMDYWGQGSSVTVSSAKTTPPSVYPLAPGSAAQTNSMVTLGCLVKGYFPEPVTVTWNSGSLSSGVHTFPAVLQSDLYTLSSSVTVPSSTWPSQTVTCNVAHPASSTKVDKKIVPRDCGCKPCICTVPEVSSVFIFPPKPKDVLTITLTPKVTCVVVDISKDDPEVQFSWFVDDVEVHTAQTKPREEQFNSTFRSVSELPIMHQDWLNGKEFKCRVNSAAFPAPIEKTISKTKGRPKAPQVYTIPPPKEQMAKDKVSLTCMITNFFPEDITVEWQWNGQPAENYKNTQPIMDTDGSYFVYSKLNVQKSNWEAGNTFTCSVLHEGLHNHHTEKSLSHSPG light: DIQMTQTSSSLSASLGDRVTISCRASQEITNYLNWYQQKPDGTIKLLIYYTSRIHSGVSSRFSGSGSGTDYSLTISNLEQEDIATYFCQQGNTIPLTFDTGTKLELKRADAAPTVSIFPPSSEQLTSGGASVVCFLNNFYPKDINVKWKIDGSERQNGVLNSWTDQDSKDSTYSMSSTLTLTKDEYERHNSYTCEATHKTSTSPIVKSFNRNEC

— US20250145694A1 (GUANGDONG FEIPENG BIOLOGICAL, published 2025)
